These results are taken from patent US20210130436A1.

Assay [1] has as its target T1, CD96 (UniProt P40200).
T1 sequence (looked up): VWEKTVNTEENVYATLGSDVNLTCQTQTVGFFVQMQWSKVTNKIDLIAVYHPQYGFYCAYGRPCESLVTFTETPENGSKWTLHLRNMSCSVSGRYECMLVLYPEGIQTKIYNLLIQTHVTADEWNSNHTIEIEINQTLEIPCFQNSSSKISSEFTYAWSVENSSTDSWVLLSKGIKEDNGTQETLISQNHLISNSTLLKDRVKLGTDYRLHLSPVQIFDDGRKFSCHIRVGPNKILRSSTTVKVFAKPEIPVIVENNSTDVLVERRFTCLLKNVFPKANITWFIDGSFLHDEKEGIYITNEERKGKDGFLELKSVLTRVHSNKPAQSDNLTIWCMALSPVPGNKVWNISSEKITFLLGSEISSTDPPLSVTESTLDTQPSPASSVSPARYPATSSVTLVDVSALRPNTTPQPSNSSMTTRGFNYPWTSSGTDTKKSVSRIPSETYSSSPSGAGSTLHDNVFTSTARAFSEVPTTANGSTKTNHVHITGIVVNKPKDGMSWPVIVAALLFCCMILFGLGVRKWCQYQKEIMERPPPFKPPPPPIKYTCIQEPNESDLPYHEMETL
The experiment in a line: flow cytometry, MFI ratio to WT CD155 ECD-Fc, CD96-transfected cells.

In assay [2] the target is T1, CD96. Nature of the assay: flow cytometry, Fc fusion at 100 nM, CD96-transfected cells.
Assay [3] deals with T2, CD226 (Homo sapiens (Human)) (UniProt Q15762).
T2 sequence: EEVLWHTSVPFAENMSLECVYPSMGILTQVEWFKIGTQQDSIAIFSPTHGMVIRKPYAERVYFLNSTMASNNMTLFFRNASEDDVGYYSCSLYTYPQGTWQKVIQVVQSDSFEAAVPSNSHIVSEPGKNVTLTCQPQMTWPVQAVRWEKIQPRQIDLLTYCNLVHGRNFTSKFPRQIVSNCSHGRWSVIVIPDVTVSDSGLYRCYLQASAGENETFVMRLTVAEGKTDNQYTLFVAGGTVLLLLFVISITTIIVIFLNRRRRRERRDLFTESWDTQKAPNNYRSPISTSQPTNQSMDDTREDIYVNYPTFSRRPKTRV
The experiment in a line: flow cytometry on CD226-expressing cells, Fc fusion at 100 nM.

The target of assay [4] is PD-1 (PDCD1) (Homo sapiens (Human)) (UniProt Q15116). The experiment in a line: cell-based or functional assay.
The target of assay [5] is human PD-L1, full length, expressed on transfected HEK293 cells (human) (UniProt Q9NZQ7). Nature of the assay: flow cytometry, HEK293 cells transfected with human PD-L1.
Assay [6] concerns the target T3, CD112R, Q6DKI7.
T3 chain: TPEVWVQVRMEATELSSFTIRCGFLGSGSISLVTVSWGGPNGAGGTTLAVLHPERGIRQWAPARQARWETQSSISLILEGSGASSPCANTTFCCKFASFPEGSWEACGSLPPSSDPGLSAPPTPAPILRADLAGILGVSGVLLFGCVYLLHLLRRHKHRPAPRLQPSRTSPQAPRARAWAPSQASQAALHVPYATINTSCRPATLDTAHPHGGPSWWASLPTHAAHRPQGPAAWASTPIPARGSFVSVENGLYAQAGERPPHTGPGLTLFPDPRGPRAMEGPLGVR
The experiment in a line: flow cytometry, cells expressing CD112R, 20 nM. Conditions: remark: other sources report otherwise.

Chain of PD-1 (PDCD1) (Homo sapiens (Human)) (Q15116 21-288): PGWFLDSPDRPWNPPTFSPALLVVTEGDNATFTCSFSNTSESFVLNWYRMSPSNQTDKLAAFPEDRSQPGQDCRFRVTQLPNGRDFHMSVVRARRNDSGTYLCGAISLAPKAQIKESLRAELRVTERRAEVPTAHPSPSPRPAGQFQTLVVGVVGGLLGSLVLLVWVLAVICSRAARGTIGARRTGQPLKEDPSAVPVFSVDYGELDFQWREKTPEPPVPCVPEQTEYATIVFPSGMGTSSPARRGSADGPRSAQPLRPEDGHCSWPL
Chain of human PD-L1, full length, expressed on transfected HEK293 cells (human) (Q9NZQ7 19-290): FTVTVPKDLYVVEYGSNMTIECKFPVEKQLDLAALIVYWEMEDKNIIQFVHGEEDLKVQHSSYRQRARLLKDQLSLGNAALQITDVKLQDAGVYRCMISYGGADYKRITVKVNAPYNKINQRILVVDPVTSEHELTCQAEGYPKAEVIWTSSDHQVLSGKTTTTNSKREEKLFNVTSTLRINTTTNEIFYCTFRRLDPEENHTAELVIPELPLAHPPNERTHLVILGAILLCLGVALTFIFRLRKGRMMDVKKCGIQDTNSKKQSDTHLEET

B1: variant CD155 IgV-Fc G111R (Fc fusion, not shown: a dimerising Fc or GST)
chain: WPPPGTGDVVVQAPTQVPGFLGDSVTLPCYLQVPNMEVTHVSQLTWARHGESGSMAVFHQTQGPSYSESKRLEFVAARLGAELRNASLRMFGLRVEDEGNYTCLFVTFPQRSRSVDIWLRVL
In the case of B1, the Fold ↑ to WT ECD in assay [1] amounted to 0.03 fold. Further, the MFI at 100 nM in assay [2] was determined as 3320 MFI.

B2: CD155 P18S/T45S/T61K/S65W/S67A/F91S/G111R IgV-Fc (Fc fusion, not shown: a dimerising Fc or GST)
chain: WPPPGTGDVVVQAPTQVSGFLGDSVTLPCYLQVPNMEVTHVSQLSWARHGESGSMAVFHQKQGPWYAESKRLEFVAARLGAELRNASLRMSGLRVEDEGNYTCLFVTFPQRSRSVDIWLRVL
Molecule B2 gave an MFI at 100 nM in assay [3] of 2110 MFI.

B3: PD-L2 H15Q/S39I/E44D/Q72H/V75G/R76G/Q82R/V89D IgV-Fc (Fc fusion, not shown: a dimerising Fc or GST)
chain: LFTVTVPKELYIIEQGSNVTLECNFDTGSHVNLGAITAILQKVDNDTSPHRERATLLEEQLPLGKASFHIPHVQGGDEGQYRCIIIYGDAWDYKYLTLKVKA
As to B3, the IFN gamma levels pg/mL (MLR) in assay [4] came out at 941 pg/mL.

B4: PD-L2 H15Q/T47A/S67L/R76G/Q82R/V89D IgV-Fc (Fc fusion, not shown: a dimerising Fc or GST)
chain: LFTVTVPKELYIIEQGSNVTLECNFDTGSHVNLGAITASLQKVENDASPHRERATLLEEQLPLGKALFHIPQVQVGDEGQYRCIIIYGDAWDYKYLTLKVKA
With B4, the IFN gamma levels pg/mL (MLR) in assay [4] was 1100 pg/mL.

B5: PD-L2 I13V/H15Q/T47A/S67L/Q72H/R76G/Q82R/V89D IgV-Fc (Fc fusion, not shown: a dimerising Fc or GST)
chain: SEQLFTVTVPKELYIVEQGSNVTLECNFDTGSHVNLGAITASLQKVENDASPHRERATLLEEQLPLGKALFHIPHVQVGDEGQYRCIIIYGDAWDYKYLTLKVKA
In assay [4], B5 yielded a Fold increase over wildtype PD-L2 IgV-Fc (IFN gamma, MLR) of 1.13 fold and an IFN gamma levels pg/mL (MLR) of 1560 pg/mL.

B6: variant CD80 IgV-Fc A12T/E24D/E35D/D46V/I61V/L72P/E95V (Fc fusion, not shown: a dimerising Fc or GST)
chain: VIHVTKEVKEVTTLSCGHNVSVEDLAQTRIYWQKDKKMVLTMMSGVMNIWPEYKNRTIFDVTNNLSIVILAPRPSDEGTYECVVLKYEKDAFKRVHLAEVTLSVKAD
With B6, in assay [5], the MFI at 22.2 nM turned out to be 1220 MFI.

B7: WT CD112-Fc ECD, Q92692 32-360 (Fc fusion, not shown: a dimerising Fc or GST)
chain: QDVRVQVLPEVRGQLGGTVELPCHLLPPVPGLYISLVTWQRPDAPANHQNVAAFHPKMGPSFPSPKPGSERLSFVSAKQSTGQDTEAELQDATLALHGLTVEDEGNYTCEFATFPKGSVRGMTWLRVIAKPKNQAEAQKVTFSQDPTTVALCISKEGRPPARISWLSSLDWEAKETQVSGTLAGTVTVTSRFTLVPSGRADGVTVTCKVEHESFEEPALIPVTLSVRYPPEVSISGYDDNWYLGRTDATLSCDVRSNPEPTGYDWSTTSGTFPTSAVAQGSQLVIHAVDSLFNTTFVCTVTNAVGMGRAEQVIFVRETPNTAGAGATGG
For B7, in assay [6], the Fold Increase to WT IgV turned out to be 0.75 fold and the MFI at 20 nM was determined as 1250.
